Laboratory results published in paper PMC10616557 (iScience, 2023).

Biological target: the molecule itself
Assay: cross-linking

Protein	stoichiometry N
MGNASFGSKEQKLLKRLRLLPALLILRAFKPHRK (peptide, UniProt O95661 1-34, looked up) [DIRAS3 N-terminal extension peptide, wild type (NTEwt)]	2
MANASFGSKEQKLLKRLRLLPALLILRAFKPHRK (peptide, UniProt O95661 1-34, looked up) [DIRAS3 NTE peptide with mutation of the glycine myristoylation site (NTEG2A)]	2
